Sequences and labels used below:
B1: Mutation 1-33 (antibody, V domains shown)
VH: QVQLQQPGAELVKPGASVRLSCQTSVETFSTYYIYWVKQRPGEGLEWIGGINPTSGGPVFNEKFKSKATLTVDTSSSTAYMQLSSLTSVDSAVYYCTRSLLRRGYYFDYWGQGTALTVSS
VL: DIQMTQTTSSLSASLGDRVTISCRASQDINNYLNWYQQKPDGTIKLLIYYTSRLQSGLPSRFSGSGSGTDYSLTIANLEQEDIATYFCQQDDTLPLTFGAGTKVELKR
notes: Mutation 1 background; CDRs built
B2: Mutation 1-59 (antibody, V domains shown)
VH: QVQLQQPGAELVKPGASVRLSCQTSVNTFSTYYIYWVKQRPGEGLEWIGGLNPTSNPVFNEKFKSKATLTVDTSSSTAYMQLSSLTSVDSAVYYCTRSVIRRGYYFDYWGQGTALTVSS
VL: B1 VL with L33I, L94V
notes: as for B1
B3: Mutation 1-37 (antibody, V domains shown)
VH: B2 VH with N27E, S30T, V99I, I100V
VL: B1 VL with L33V, Q55H, L58I, L94I, L96I
notes: as for B1
B4: Mutation 1-45 (antibody, V domains shown)
VH: B1 VH with E27N, S30T, L100I
VL: B1 VL with Q55N, L58V, L94I
notes: as for B1
B5: Mutation 1-56 (antibody, V domains shown)
VH: B1 VH with E27D, S30T, L100I, L101I
VL: B1 VL with N30Q, Q55N, L94I
notes: as for B1
B6: Mutation 1-49 (antibody, V domains shown)
VH: B2 VH with N27E, S30T, I100V
VL: B1 VL with L33V, L58I, L94V, L96I
notes: as for B1
B7: Mutation 1-58 (antibody, V domains shown)
VH: B2 VH with N27E, S30T, L51I, I100V
VL: B1 VL with N30Q, L33I, L58I, L94V, L96I
notes: as for B1
B8: Mutation 1-35 (antibody, V domains shown)
VH: B2 VH with N27D, S30T, L51V, V99L
VL: B1 VL with L33I, Q55N, L96V
notes: as for B1
B9: Mutation 1-44 (antibody, V domains shown)
VH: B1 VH with E27N, I51V, L101I
VL: B1 VL with N30Q, Q55N, L96V
notes: as for B1
B10: Mutation 1-38 (antibody, V domains shown)
VH: B1 VH with E27N, I51V, L100I, L101I
VL: B1 VL with N30Q, Q55N, L58I, L94I
notes: as for B1
B11: Mutation 1-43 (antibody, V domains shown)
VH: B2 VH with N27E, S30T, V99L, I100V
VL: B1 VL with L33V, Q55H, L96I
notes: as for B1
B12: Mutation 1-8 (antibody, V domains shown)
VH: B2 VH with N27E, V99L
VL: B1 VL with N30Q, Q55N
notes: as for B1
B13: Mutation 1-9 (antibody, V domains shown)
VH: B1 VH with S30T, I51V, L100I
VL: B1 VL with L58I, L94I, L96V
notes: as for B1
B14: Mutation 1-55 (antibody, V domains shown)
VH: B1 VH with E27D, I51V, L100I, L101V
VL: B1 VL with L33V, Q55N, L58I, L94I, L96I
notes: as for B1
B15: Mutation 1-41 (antibody, V domains shown)
VH: B2 VH with N27D, S30T, L51V
VL: B1 VL with L33I, Q55N, L58V, L94V, L96V
notes: as for B1
B16: Mutation 1-53 (antibody, V domains shown)
VH: B2 VH with L51I, V99L
VL: B1 VL with L33I, Q55H, L96V
notes: as for B1
B17: Mutation 1-7 (antibody, V domains shown)
VH: B2 VH with N27D, S30T, L51I, V99L, I100V
VL: B1 VL with L33V, Q55N, L58V, L96I
notes: as for B1
B18: Mutation 1-51 (antibody, V domains shown)
VH: B1 VH with E27N, S30T
VL: B1 VL with Q55H, L58V
notes: as for B1
B19: Mutation 1-3 (antibody, V domains shown)
VH: B1 VH with S30T, I51V, L100V
VL: B1 VL with Q55H, L58I, L94V, L96V
notes: as for B1

Substitutions are numbered along the chain they refer to.

The record followed here is patent publication US20210403601A1 (FAPON BIOTECH, published 2021).

The target in the experiment is T1, Taq DNA polymerase (Thermus aquaticus, UniProt P19821 1-832).
T1 construct: also called Taq enzyme; Taq DNA enzyme
T1 sequence (P19821 whole entry): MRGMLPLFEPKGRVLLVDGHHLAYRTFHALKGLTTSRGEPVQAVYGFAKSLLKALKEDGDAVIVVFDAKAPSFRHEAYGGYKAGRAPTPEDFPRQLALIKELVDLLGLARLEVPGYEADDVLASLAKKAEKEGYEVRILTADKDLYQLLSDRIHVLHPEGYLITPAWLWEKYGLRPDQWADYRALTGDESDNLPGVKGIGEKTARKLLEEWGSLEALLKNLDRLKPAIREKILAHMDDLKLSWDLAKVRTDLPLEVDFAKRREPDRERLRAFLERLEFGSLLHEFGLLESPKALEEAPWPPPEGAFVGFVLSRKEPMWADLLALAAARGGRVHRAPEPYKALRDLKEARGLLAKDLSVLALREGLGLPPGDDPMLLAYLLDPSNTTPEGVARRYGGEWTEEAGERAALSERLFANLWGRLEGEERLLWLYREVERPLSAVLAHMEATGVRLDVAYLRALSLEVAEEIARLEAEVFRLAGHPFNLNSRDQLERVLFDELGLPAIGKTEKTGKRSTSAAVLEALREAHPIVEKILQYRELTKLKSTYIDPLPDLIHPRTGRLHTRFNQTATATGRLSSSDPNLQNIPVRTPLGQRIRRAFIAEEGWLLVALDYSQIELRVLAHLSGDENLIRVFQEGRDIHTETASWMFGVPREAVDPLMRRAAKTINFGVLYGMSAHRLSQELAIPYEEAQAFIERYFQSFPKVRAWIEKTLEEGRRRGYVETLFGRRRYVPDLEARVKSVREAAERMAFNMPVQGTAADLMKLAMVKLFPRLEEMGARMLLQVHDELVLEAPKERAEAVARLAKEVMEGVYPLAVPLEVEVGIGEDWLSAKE
Nature of the experiment: AMC sensor, antibody immobilised.
For B1, binding was characterised by a dissociation constant (Kd) of 926 pM; the koff (in general, the rate constant with which the complex falls apart) came to 3.94e-05 s⁻¹; the on-rate (kon) (as a rule, a measure of how fast the partners come together) came to 42600 M⁻¹ s⁻¹.
On the same counts, the results for B2 are 50.7 pM, 3.06e-06 s⁻¹ and 60400 M⁻¹ s⁻¹.
On the same counts, the results for B3 are 382 pM, 2.68e-05 s⁻¹ and 70200 M⁻¹ s⁻¹.
On the same counts, the results for B4 are 58.2 pM, 3.07e-06 s⁻¹ and 52600 M⁻¹ s⁻¹.
As for B5, the Kd (commonly the free concentration of one partner at which half of the binding sites on the other are occupied at equilibrium, for simple one-to-one binding) worked out at 914 pM; the koff is 3.79e-05 s⁻¹; the kon was found to be 41500 M⁻¹ s⁻¹.
On the same counts, the results for B6 are 198 pM, 1.71e-05 s⁻¹ and 86100 M⁻¹ s⁻¹.
The corresponding values for B7 are 178 pM, 1.34e-05 s⁻¹ and 75000 M⁻¹ s⁻¹.
Molecule B8 returned a Kd of 706 pM, a koff of 3.7e-05 s⁻¹ and a kon of 52400 M⁻¹ s⁻¹.
On the same counts, the results for B9 are 13.3 pM, 4.9e-06 s⁻¹ and 369000 M⁻¹ s⁻¹.
The corresponding values for B10 are 106 pM, 3.32e-06 s⁻¹ and 31400 M⁻¹ s⁻¹.
On the same counts, the results for B11 are 971 pM, 6.92e-05 s⁻¹ and 71200 M⁻¹ s⁻¹.
B12 yielded a dissociation constant (Kd) of 34.4 pM, a koff of 1.64e-06 s⁻¹ and a kon of 47600 M⁻¹ s⁻¹.
On the same counts, the results for B13 are 926 pM, 7.28e-05 s⁻¹ and 78600 M⁻¹ s⁻¹.
In the case of B14, binding was put at a Kd of 173 pM, the dissociation rate constant (koff) worked out at 1.12e-05 s⁻¹ and the association rate constant (kon) came out at 64400 M⁻¹ s⁻¹.
The corresponding values for B15 are 297 pM, 9.82e-06 s⁻¹ and 33100 M⁻¹ s⁻¹.
B16: the affinity, expressed as Kd, was 384 pM; the koff was 3.8e-05 s⁻¹; the kon amounted to 99000 M⁻¹ s⁻¹.
On the same counts, the results for B17 are 599 pM, 2.45e-05 s⁻¹ and 41000 M⁻¹ s⁻¹.
The corresponding values for B18 are 384 pM, 3.77e-05 s⁻¹ and 98300 M⁻¹ s⁻¹.
For the molecule B19, the Kd turned out to be 368 pM, the koff worked out at 1.54e-05 s⁻¹ and the kon turned out to be 42000 M⁻¹ s⁻¹.
